What was measured:
[1] = In vitro paclitaxel release from composite fibrous structures; assay type: physicochemical; conditions: PBS 37° C.
Protocol: Cumulative release of paclitaxel from samples of composite fibrous structures was monitored and followed over a time period of four months. Samples of composite structures were immersed in PBS at 37° C. for 112 days. The medium was entirely removed periodically and assayed for drug release, and fresh medium was introduced. The paclitaxel content of each medium sample was determined using Agilent 1100 High Performance Liquid Chromatography (HPLC).

[2] = In-vitro HRP release from composite fibrous structures; assay type: physicochemical
Protocol: Various samples of HRP-containing composite fibrous structures were used to determine the release kinetics of HRP over a time period of 90 days. The HRP release studies were conducted in closed 1 ml glass vessels in which the HRP-containing composite fibrous structures were immersed in 1 ml sterile double-distilled water containing sodium azide as preservative (0.05% w/w) at 37° C. The entire aqueous medium was replaced periodically by fresh medium and HRP content in the removed medium was determined by the micro BCA assay method, by measuring absorbance at 595 nm.
Cumulative HRP release profiles were determined relative to the initial amount of HRP in each of the tested structures, i.e., the amount of HRP released during the incubation period and the residual HPR remaining in the structures. All experiments were performed in triplicate.
Residual protein recovery front composite fibrous structures: Residual protein recovery from spent composite fibrous structure samples used in the abovementioned in-vitro release experiments was conducted according to a previously described method [Jeffery H et al., Pharm. Res., 1993, 10(3), pp 362-368].
Briefly, composite fibrous structures were extracted in 1 ml sodium dodecyl sulfate (SDS)/NaOH 5%/0.1 M solution for 48 hours at 37° C. Following extraction, the HRP concentration was estimated using a micro BCA assay method as described hereinabove. Based on these assays, the exact amount of the HRP loaded in each structure was determined and served for calculating the percentages cited in the assays above.

[3] = as obtained from Aldrich; cited from earlier work

paclitaxel released during the first 24 hours ([1]; emulsions containing 2.9% w/w paclitaxel) [%]	paclitaxel released during the first 24 hours ([1]; fibers coated with emulsion containing 7.14% w/w paclitaxel) [%]	burst effect of paclitaxel release during the first days ([1]; standard reference emulsion (17.5% w/v polymer, 1.43% w/w paclitaxel, O:A 2:1), nylon core)	Compound	initial burst of HRP release ([2]; 1% w/w HRP load, O:A 4:1, water with sodium azide, 37° C.) [%]	initial burst of HRP release (mean) ([2]; 5% w/w HRP load, O:A 4:1, water with sodium azide, 37° C.) [%]	active enzyme released during the 90 day experiment ([2]; 5% w/w HRP load, O:A 4:1, 8:1, 16:1, coat-polymer 13%, 15%, 19% w/v, 90 days)	burst effect of HRP release ([2]; O:A 4:1 formulations, 5% w/w HRP load)	burst effect of HRP release ([2]; O:A 8:1, 5% w/w HRP, highest coat-polymer content (19% w/v)) [%]	burst effect of HRP release ([2]; O:A 8:1, 5% w/w HRP, lowest coat-polymer content (13% w/v)) [%]	burst effect of HRP release ([2]; O:A 16:1, 5% w/w HRP, highest coat-polymer content (19% w/v)) [%]	burst effect of HRP release ([2]; O:A 16:1, 5% w/w HRP, lowest coat-polymer content (13% w/v)) [%]	burst effect of HRP release ([2]; O:A 16:1 formulations, 5% w/w HRP load)	initial enzymatic activity [3] [U/mg]
3	7	less than 3%	CC(=O)O[C@H]1C(=O)[C@@]2(C)[C@H]([C@H](OC(=O)c3ccccc3)[C@]3(O)C[C@H](OC(=O)[C@H](O)[C@@H](NC(=O)c4ccccc4)c4ccccc4)C(C)=C1C3(C)C)[C@]1(OC(C)=O)CO[C@@H]1C[C@@H]2O [paclitaxel, Paclitaxel]										
			Horseradish peroxidase [HRP]	20	70	at least 90%	70-80%	26	66	10	20	10-20%	500
